Experimental data from PMC11999149.
Where two headings read alike, the source gives them in different places.

Assays:
[1] = target: membrane truncated soluble E2 (sE2, residues 384-645) of the H77 isolate (hepatitis C virus, isolate H77, genotype 1a) (UniProt P27958); test: SPR
[2] = target: membrane truncated soluble E2 (sE2, residues 384-645) of the H77 isolate (Hepatitis C virus genotype 1a, isolate H77) (UniProt P27958); test: SPR
AR2A = test: ELISA; details: IgG at its EC50; normalized using the signal of HCV1 at EC50
[3] = target: AR3A full-length IgG (reference); test: ELISA; details: IgG at its EC50; normalized using the signal of HCV1 at EC50

Substance: A3_9 full-length IgG1 (from UniProt P01857)
- Kd [1]: 0.0448 nM
- koff [1]: 1.02e-05 s⁻¹

Substance: AR3A Fab (reference)
- Kd [2]: 10 nM

Substance: Fab #2 (group I) (from UniProt P01857)
- Kd ([1]; Fab): 0.19 nM
- koff ([1]; Fab): 2.08e-05 s⁻¹

Substance: Fab A2_11 (group II) (from UniProt P01857)
- Kd ([1]; Fab): 0.66 nM
- koff ([1]; Fab): 4.41e-05 s⁻¹

Substance: Fab A3_9 (from UniProt P01857)
- Kd ([1]; Fab): 1.6 nM
- koff ([1]; Fab): 0.000119 s⁻¹

Substance: Fab A8_9 (group III) (from UniProt P01857)
- Kd ([1]; Fab): 4.02 nM
- koff ([1]; Fab): 0.000299 s⁻¹

Substance: Fab B1_9 (group II) (from UniProt P01857)
- Kd ([1]; Fab): 2.62 nM
- koff ([1]; Fab): 0.000299 s⁻¹

Substance: Fab B1_11 (group I) (from UniProt P01857)
- Kd ([1]; Fab): 0.485 nM
- koff ([1]; Fab): 3.33e-05 s⁻¹

Substance: detergent-extracted full-length E1/E2 of HCV isolate H77 (genotype 1a) (from UniProt P27958) C429A
- percent of parent (AR2A): 43 % WT
- percent of parent [3]: 3 % WT

Substance: detergent-extracted full-length E1/E2 of HCV isolate H77 (genotype 1a) (from UniProt P27958) F442A
- percent of parent (AR2A): 71 % WT
- percent of parent [3]: 2 % WT

Substance: detergent-extracted full-length E1/E2 of HCV isolate H77 (genotype 1a) (from UniProt P27958) F627A
- percent of parent (AR2A): 38 % WT
- percent of parent [3]: 68 % WT

Substance: detergent-extracted full-length E1/E2 of HCV isolate H77 (genotype 1a) (from UniProt P27958) G436A
- percent of parent (AR2A): 123 % WT
- percent of parent [3]: 22 % WT

Substance: detergent-extracted full-length E1/E2 of HCV isolate H77 (genotype 1a) (from UniProt P27958) G440A
- percent of parent (AR2A): 79 % WT
- percent of parent [3]: 10 % WT

Substance: detergent-extracted full-length E1/E2 of HCV isolate H77 (genotype 1a) (from UniProt P27958) K628A
- percent of parent (AR2A): 24 % WT
- percent of parent [3]: 63 % WT

Substance: detergent-extracted full-length E1/E2 of HCV isolate H77 (genotype 1a) (from UniProt P27958) L427A
- percent of parent (AR2A): 67 % WT
- percent of parent [3]: 7 % WT

Substance: detergent-extracted full-length E1/E2 of HCV isolate H77 (genotype 1a) (from UniProt P27958) L438A
- percent of parent (AR2A): 88 % WT
- percent of parent [3]: 4 % WT

Substance: detergent-extracted full-length E1/E2 of HCV isolate H77 (genotype 1a) (from UniProt P27958) L441A
- percent of parent (AR2A): 85 % WT
- percent of parent [3]: 5 % WT

Substance: detergent-extracted full-length E1/E2 of HCV isolate H77 (genotype 1a) (from UniProt P27958) N428A
- percent of parent (AR2A): 70 % WT
- percent of parent [3]: 6 % WT

Substance: detergent-extracted full-length E1/E2 of HCV isolate H77 (genotype 1a) (from UniProt P27958) R630A
- percent of parent (AR2A): 43 % WT
- percent of parent [3]: 84 % WT

Substance: detergent-extracted full-length E1/E2 of HCV isolate H77 (genotype 1a) (from UniProt P27958) T425A
- percent of parent (AR2A): 77 % WT
- percent of parent [3]: 6 % WT

Substance: detergent-extracted full-length E1/E2 of HCV isolate H77 (genotype 1a) (from UniProt P27958) T625A
- percent of parent (AR2A): 28 % WT
- percent of parent [3]: 12 % WT

Substance: detergent-extracted full-length E1/E2 of HCV isolate H77 (genotype 1a) (from UniProt P27958) W437A
- percent of parent (AR2A): 98 % WT
- percent of parent [3]: 4 % WT

Substance: detergent-extracted full-length E1/E2 of HCV isolate H77 (genotype 1a) (from UniProt P27958) Y485A
- percent of parent (AR2A): 94 % WT
- percent of parent [3]: 76 % WT
